Target: the molecule itself
Assay: crystal structure; sitting-drop vapour diffusion at 290 K, Bis-Tris propane pH 6.5, PEG 3350; phosphate-bound (2.00 Å) and FBP-bound (2.37 Å) forms, space group C222(1), data at 100 K

B1: Fructose bisphosphate aldolase from Encephalitozoon cuniculi (enzyme, UniProt Q8SSM8 1-338, looked up)
chain: MMDCDHLLRLGMTAKKILENGKGILAADETPKTLGRRFEKLGITNTEENRRKFREILFSTKGIERYIGGVILNQETFEQTSGSGVPLTELLKKKGIEIGIKLDKGLIDYKEKEKISVGLEDLDLRCKSSAFKDATFAKWRSLFYFYDGIPSEDCINENCSILAKYAIICQKNGLVPIVEPEVFLEGDYSMKRSYEVTRQILSTLMKYLNYELVYIPGVLIKASYVTSGQLSNEKYTPKKVATFTLRALLSTIPCGIPGIVFLSGGHGSEDAIGFLNAINMERGCRTWSLSFSFARALTDGVLETWRGDDSNIEEAQKILLETSFKACRGAEGKLWDQE
notes: Fructose bisphosphate aldolase (class I), Encephalitozoon cuniculi, UniProt Q8SSM8, full-length protein, residues 1 to 338; In PDB 3mbf Lys221 forms a Schiff base with fructose 1,6-bisphosphate; also called EcFBPA; FBPA; source: E. coli BL21(DE3)R3 Rosetta, purified (HisTrap IMAC, Superdex 75 SEC)
B1 was tested, and the “stoichiometry N” value was 2.

From PMC3169402, “Structure of fructose bisphosphate aldolase from Encephalitozoon cuniculi” (Acta Crystallographica Section F: Structural Biology and …, 2011)
